From paper doi:10.1101/2020.07.02.184341, “Contact with the CsrA core is required for allosteric inhibition by FliW in Bacillus subtilis” (bioRxiv, 2020)

T1: purified untagged wild-type FliW (FliW^WT) (B. subtilis, UniProt P96503 1-143)
T1 construct: FliW, Bacillus subtilis; also called His6-SUMO-FliW^WT before cleavage; source: E. coli Rosetta gami, purified (Ni-NTA, size exclusion chromatography, SUMO tag cleaved)
T1 sequence (looked up): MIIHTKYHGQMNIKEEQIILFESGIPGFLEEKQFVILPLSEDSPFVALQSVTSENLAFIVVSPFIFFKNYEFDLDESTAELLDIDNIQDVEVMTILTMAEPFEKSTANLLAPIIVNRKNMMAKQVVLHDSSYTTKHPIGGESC

T2: purified FliW^K123E (B. subtilis, UniProt P96503 1-143, K123E)
T2 construct: FliW, Bacillus subtilis, with K123E; cloned in pTB146 (SapI/XhoI); source: E. coli Rosetta gami, purified (Ni-NTA, size exclusion chromatography, SUMO tag cleaved)
T2 sequence (looked up): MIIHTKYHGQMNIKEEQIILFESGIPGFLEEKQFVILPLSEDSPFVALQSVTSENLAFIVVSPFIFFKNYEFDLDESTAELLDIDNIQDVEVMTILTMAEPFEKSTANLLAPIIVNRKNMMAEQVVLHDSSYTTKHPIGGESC


How the values were obtained:
[1] = molecular target: T1, purified untagged wild-type FliW …; assay: pull-down; 0.25 uM GST-CsrA (WT or D41K) on Glutathione-Sepharose beads; FliW at 0.125, 0.167, 0.25, 0.333 and 0.5 uM, 2 h at 4 C in T(0.1) buffer (25 mM Tris-HCl pH 8.0, 20% glycerol, 100 mM NaCl, 1 mM DTT, 1 mg/mL BSA); 4 washes; supernatant and pellet on Western blots; details: both partners purified
purified FliW^K123E = molecular target: T2, purified FliW^K123E; assay: as above; details: both partners purified

| Binder | binding result [1] | binding result (purified FliW^K123E) |
| --- | --- | --- |
| GST tagged CsrA (GST-CsrA^WT) (natural protein, B. subtilis, UniProt P33911 1-74, looked up, CsrA, Bacillus subtilis, fused to GST; The D41K form was cloned in pGEX-2TK; source: E. coli Rosetta gami, purified (Glutathione-Sepharose, size exclusion chromatography)) MLVLSRKINEAIQIGADIEVKVIAVEGDQVKLGIDAPKHIDIHRKEIYLTIQEENNRAAALSSDVISALSSQKK | binds | – |
| GST-CsrA^D41K (natural protein, B. subtilis, UniProt P33911 1-74, looked up, CsrA, Bacillus subtilis, with D41K, translational fusion to the GST tag in pGEX-2TK (BamHI/EcoRI); source: E. coli Rosetta gami, purified (Glutathione-Sepharose, size exclusion chromatography)) MLVLSRKINEAIQIGADIEVKVIAVEGDQVKLGIDAPKHIKIHRKEIYLTIQEENNRAAALSSDVISALSSQKK | – | binds |
